Reference: publication PMC9361823

Key:
[1] = molecular target: CumDO-O α1K117A (Pseudomonas fluorescens IP01) (UniProt Q51743)
[2] = molecular target: CumDO-O β1R65A (Pseudomonas fluorescens IP01) (UniProt Q51743)
[3] = molecular target: CumDO-O α1K117A α1K141A (Pseudomonas fluorescens IP01) (UniProt Q51743)
[4] = molecular target: CumDO-O α1K117A β1R65A (Pseudomonas fluorescens IP01) (UniProt Q51743)
[5] = molecular target: CumDO-O α1K117A β2W100A (Pseudomonas fluorescens IP01) (UniProt Q51743)
[6] = molecular target: CumDO-O α1K141A β1R65A (Pseudomonas fluorescens IP01) (UniProt Q51743)
[7] = molecular target: CumDO-O α1K141A β2W100A (Pseudomonas fluorescens IP01) (UniProt Q51743)
[8] = molecular target: CumDO-O β1R65A β2W100A (Pseudomonas fluorescens IP01) (UniProt Q51743)
[9] = molecular target: α3β3-type oxygenase component of cumene dioxygenase (CumDO-O), wild type (Pseudomonas fluorescens IP01) (UniProt Q51743)

Sequence of Rieske-type ferredoxin of cumene dioxygenase (CumDO-F) (Q51746 entry or part of it): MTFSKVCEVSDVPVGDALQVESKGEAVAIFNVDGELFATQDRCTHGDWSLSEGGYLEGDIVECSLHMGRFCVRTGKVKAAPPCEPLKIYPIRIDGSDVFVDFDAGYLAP

Rieske-type ferredoxin of cumene dioxygenase (CumDO-F) (from UniProt Q51746 1-109) (natural protein)
reduction efficiency by CumDO-F relative to WT CumDO-O (A457) [1]: 21%
reduction efficiency by CumDO-F relative to WT CumDO-O (A457) [2]: 46%
reduction efficiency by CumDO-F relative to WT CumDO-O (A457) [3]: < 20%
reduction efficiency by CumDO-F relative to WT CumDO-O (A457) [4]: < 20%
reduction efficiency by CumDO-F relative to WT CumDO-O (A457) [5]: < 20%
reduction efficiency by CumDO-F relative to WT CumDO-O (A457) [6]: < 20%
reduction efficiency by CumDO-F relative to WT CumDO-O (A457) [7]: 69%
reduction efficiency by CumDO-F relative to WT CumDO-O (A457) [8]: < 20%
reduction efficiency of the Rieske cluster of CumDO-O by CumDO-F (initial rate of decrease of A457; purified CumDO-R, CumDO-F, CumDO-O and NADH) [9]: 100%
